The record followed here is paper PMC5824745.

For assay [1], the target named is eukaryotic Initiation Factor 4E (eIF4E), wild type (mouse (endogenous in forebrain)) (UniProt P63073). Description: pull-down; cap-column pulldown: 500 ug forebrain lysate protein with 50 ul m7GDP agarose in buffer C (50 mM MOPS-KOH pH 7.4, 100 mM NaCl, 50 mM NaF, 0.5 mM EDTA, 0.5 mM EGTA, 0.1 mM GTP), 90 min at 4 C; eIF4E held by its ligand m7GDP; cap-bound fraction immunoblotted and quantified, normalised to input. A general note: A western blot detects proteins with antibodies after separation by electrophoresis.

In assay [2] the target is Gapdh (UniProt P16858). The assay can be described thus: m7GDP-agarose cap pull-down, immunoblot. Conditions: reference: wild-type mouse forebrain; sites S209.
The target of assay [3] is eIF4G (UniProt Q6NZJ6). Description: m7GDP-agarose cap pull-down, immunoblot. The note with it: reference: wild-type mouse forebrain; sites S209.
Assay [4] deals with rpL13a (UniProt P19253). Description: m7GDP-agarose cap pull-down, immunoblot. The note with it: reference: wild-type mouse forebrain; sites S209.

Sequence of Gapdh, P16858 1-333 (natural protein; other documents disagree on this pair) (P16858 whole entry): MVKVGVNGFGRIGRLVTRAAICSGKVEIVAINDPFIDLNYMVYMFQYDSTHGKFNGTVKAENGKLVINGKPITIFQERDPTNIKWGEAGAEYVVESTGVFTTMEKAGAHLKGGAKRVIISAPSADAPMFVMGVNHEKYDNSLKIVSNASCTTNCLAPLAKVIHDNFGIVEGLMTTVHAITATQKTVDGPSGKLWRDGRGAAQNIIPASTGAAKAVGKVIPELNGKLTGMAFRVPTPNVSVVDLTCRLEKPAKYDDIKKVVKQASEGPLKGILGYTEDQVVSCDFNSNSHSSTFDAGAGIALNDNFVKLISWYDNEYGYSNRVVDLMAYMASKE

Regarding “Gapdh, P16858 1-333 (natural protein; other documents disagree on this pair)”, the cap-bound protein (arbitrary units, normalised to input) (arbitrary units) in assay [1] amounted to 0.998.
Turning to “eIF4E (from UniProt P63073) 4Eki (S209A knock-in) forebrain”, the results for the “other: cap-bound band intensity normalized to input” value in assay [2], in assay [3] and in assay [4] were “same; reference 0.998 ± 0.254”, “same; reference 1.002 ± 0.149” and “weaker; reference 0.9975 ± 0.1723”, respectively.
